T1: BmNPV late expression factor 11 (LEF-11), cMYC- or FLAG-tagged (Bombyx mori nucleopolyhedrovirus (BmNPV)), O92404
T1 chain: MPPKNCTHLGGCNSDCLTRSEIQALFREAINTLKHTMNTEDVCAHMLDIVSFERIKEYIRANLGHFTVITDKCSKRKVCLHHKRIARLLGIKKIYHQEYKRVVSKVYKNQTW


Assays:
[1] = target: the molecule itself; experiment: non-reducing SDS-PAGE with western blot; lysates of BmN-SWU1 cells transfected with pIZ-DsRed-LEF11 truncation or point mutant plasmids; loading buffer without β-mercaptoethanol; anti-DsRed blot
[2] = target: T1, BmNPV late expression factor 11 …; experiment: non-reducing SDS-PAGE with western blot; lysate of BmN-SWU1 cells transfected with pIZ-LEF11^cMYC, 72 h.p.t.; loading buffer without β-mercaptoethanol; 12% SDS-PAGE; anti-cMYC blot; conditions: remark: other sources report otherwise

Row | Binder | stoichiometry N [1] | stoichiometry N [2]
1 | VCAHMLDIVSFERIKEYIRA (domain or fragment, LEF-11 of BmNPV, residues 42-61; source: BmN-SWU1 cells, transfected, in lysate; not shown: DsRed, N-terminal, kept) [DsRed-LEF11 (42–61)] | 2 | 
2 | DsRed-LEF11 (2–61) (domain or fragment, LEF-11 of BmNPV, residues 2-61; source: BmN-SWU1 cells, transfected, in lysate; not shown: DsRed, N-terminal, kept) PPKNCTHLGGCNSDCLTRSEIQALFREAINTLKHTMNTEDVCAHMLDIVSFERIKEYIRA | 2 | 
3 | KCSKRKVCLHHKRIARLLGIKKIYHQEYKR (domain or fragment, source: BmN-SWU1 cells, transfected, in lysate; not shown: DsRed, N-terminal, kept) [DsRed-LEF11 (72–101)] | 2 | 
4 | TLKHTMNTEDVCAHMLDIVSFERIKEYIRA (domain or fragment, LEF-11 of BmNPV, residues 32-61; source: BmN-SWU1 cells, transfected, in lysate; not shown: DsRed, N-terminal, kept) [DsRed-LEF11 (32–61)] | 2 | 
5 | BmNPV late expression factor 11 (LEF-11), cMYC- or FLAG-tagged, O92404 1-112 (natural protein) MPPKNCTHLGGCNSDCLTRSEIQALFREAINTLKHTMNTEDVCAHMLDIVSFERIKEYIRANLGHFTVITDKCSKRKVCLHHKRIARLLGIKKIYHQEYKRVVSKVYKNQTW |  | 4
6 | pIZ-DsRed-LEF11-I85E (natural protein, LEF-11 of BmNPV with I85E; Probably the whole LEF-11 as in pIZ-DsRed-LEF11; source: BmN-SWU1 cells, transfected, in lysate; not shown: DsRed, N-terminal, kept) MPPKNCTHLGGCNSDCLTRSEIQALFREAINTLKHTMNTEDVCAHMLDIVSFERIKEYIRANLGHFTVITDKCSKRKVCLHHKREARLLGIKKIYHQEYKRVVSKVYKNQTW | 2 | 
7 | pIZ-DsRed-LEF11-Y58E&I59E (natural protein, LEF-11 of BmNPV with Y58E and I59E; Probably the whole LEF-11 as in pIZ-DsRed-LEF11; also called YE58&I59E; source: BmN-SWU1 cells, transfected, in lysate; not shown: DsRed, N-terminal, kept) MPPKNCTHLGGCNSDCLTRSEIQALFREAINTLKHTMNTEDVCAHMLDIVSFERIKEEERANLGHFTVITDKCSKRKVCLHHKRIARLLGIKKIYHQEYKRVVSKVYKNQTW | 2 | 
8 | pIZ-DsRed-LEF11-L88E&L89E (natural protein, LEF-11 of BmNPV with L88E and L89E; Probably the whole LEF-11 as in pIZ-DsRed-LEF11; source: BmN-SWU1 cells, transfected, in lysate; not shown: DsRed, N-terminal, kept) MPPKNCTHLGGCNSDCLTRSEIQALFREAINTLKHTMNTEDVCAHMLDIVSFERIKEYIRANLGHFTVITDKCSKRKVCLHHKRIAREEGIKKIYHQEYKRVVSKVYKNQTW | 2 | 
9 | pIZ-DsRed-LEF11-I55E (natural protein, LEF-11 of BmNPV with I55E; Probably the whole LEF-11 as in pIZ-DsRed-LEF11; source: BmN-SWU1 cells, transfected, in lysate; not shown: DsRed, N-terminal, kept) MPPKNCTHLGGCNSDCLTRSEIQALFREAINTLKHTMNTEDVCAHMLDIVSFEREKEYIRANLGHFTVITDKCSKRKVCLHHKRIARLLGIKKIYHQEYKRVVSKVYKNQTW | 2 | 
10 | FERIKEYIRA (domain or fragment, LEF-11 of BmNPV, residues 52-61; source: BmN-SWU1 cells, transfected, in lysate; not shown: DsRed, N-terminal, kept) [DsRed-LEF11 (52–61)] | 2 | 
11 | CNSDCLTRSEIQALFREAINTLKHTMNTEDVCAHMLDIVSFERIKEYIRA (domain or fragment, LEF-11 of BmNPV, residues 12-61; source: BmN-SWU1 cells, transfected, in lysate; not shown: DsRed, N-terminal, kept) [DsRed-LEF11 (12–61)] | 2 | 
12 | PPKNCTHLGGCNSDCLTRSEIQALFREAINTLKHTMNTEDVCAHMLDIVS (domain or fragment, LEF-11 of BmNPV, residues 2-51; source: BmN-SWU1 cells, transfected, in lysate; not shown: DsRed, N-terminal, kept) [DsRed-LEF11 (2–51)] | 2 | 
13 | IQALFREAINTLKHTMNTEDVCAHMLDIVSFERIKEYIRA (domain or fragment, LEF-11 of BmNPV, residues 22-61; source: BmN-SWU1 cells, transfected, in lysate; not shown: DsRed, N-terminal, kept) [DsRed-LEF11 (22–61)] | 2 | 
14 | DsRed-LEF11 (62–112) (domain or fragment, LEF-11 of BmNPV, residues 62-112; source: BmN-SWU1 cells, transfected, in lysate; not shown: DsRed, N-terminal, kept) NLGHFTVITDKCSKRKVCLHHKRIARLLGIKKIYHQEYKRVVSKVYKNQTW | 2 | 
15 | KCSKRKVCLHHKRIARLLGIKKIYHQEYKRVVSKVYKNQTW (domain or fragment, LEF-11 of BmNPV, residues 72-112; source: BmN-SWU1 cells, transfected, in lysate; not shown: DsRed, N-terminal, kept) [DsRed-LEF11 (72–112)] | 2 | 
